Laboratory results published in patent US20230125550A1 (ARCELLX, published 2023).

T1: AFP p26 (human, UniProt P02771 381-609)
T1 construct: The construct used is not described
T1 sequence: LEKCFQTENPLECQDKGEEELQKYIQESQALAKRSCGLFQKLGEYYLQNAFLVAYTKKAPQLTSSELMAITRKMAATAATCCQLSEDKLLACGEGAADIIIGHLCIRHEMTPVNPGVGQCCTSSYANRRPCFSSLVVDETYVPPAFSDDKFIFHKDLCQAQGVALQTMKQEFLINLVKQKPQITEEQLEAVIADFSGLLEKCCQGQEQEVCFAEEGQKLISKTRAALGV


What follows are binders tested against T1, AFP p26 (assay: phage ELISA, A450 target/A450 IgG1-Fc).
Summary of the method: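 Individual phagemid colonies picked from panning output were rescued in 96-well format using VCSM13 helper phage. Plates received 1.3 microg/ml goat anti-human IgG1-Fc antibody, followed by 5 nM recombinant human target or IgG1-Fc, and then 50 microl of phage diluted 5× in ELISA blocking buffer. An HRP-conjugated anti-M13 antibody detected binding at 450 nm. For each clone, the ELISA ratio is the absorbance with target divided by that with IgG1-Fc, averaged over every screened well containing the clone.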

ELISA_avg | Binder
20.3 ratio | SEQ ID NO 796 (designed binder) MGSWFEFFERLAAIEDRLWALGGSEAELAAFEKEIAAFESELQAYKGKGNPEVESLRVHAAAIRAFLQAYRHN
33.1 ratio | SEQ ID NO 794 (designed binder) MGSWYEFVSRLEAIDDRLYALGGSEAELAAFEKEIAAFESELQAYKGKGNPEVEMLRQHAAAIRHWLQAYRHN
11.7 ratio | SEQ ID NO 799 (designed binder) MGSWVEFVTRLEAIEDRLFALGGSEAELAAFEKEIAAFESELQAYKGKGNPEVEHLRAHAAHIRHWLQAYRHN
29.6 ratio | SEQ ID NO 793 (designed binder) MGSWYEFYYRLEAIDNRLIALGGSEAELAAFEKEIAAFESELQAYKGKGNPEVEVLREHAAKIREWLQAYRHN
23.8 ratio | SEQ ID NO 801 (designed binder) MGSWVEFVERLDAIEFRLFALGGSEAELAAFEKEIAAFESELQAYKGKGNPEVEKLRNHAAHIRSWLQAYRHN
18.3 ratio | SEQ ID NO 797 (designed binder) MGSWIEFKYRLDAIEWRLEALGGSEAELAAFEKEIAAFESELQAYKGKGNPEVESLRIHAAAIRTWLQAYRHN
26 ratio | SEQ ID NO 795 (designed binder) MGSWYEFSHRLEAIEDRLFALGGSEAELAAFEKEIAAFESELQAYKGKGNPEVEPLREHAAYIRHWLQAYRHN
30.8 ratio | SEQ ID NO 792 (designed binder) MGSWYEFYKRLEAIDNRLYALGGSEAELAAFEKEIAAFESELQAYKGKGNPEVEYLREHAAAIRHWLQAYRHN
30.8 ratio | SEQ ID NO 788 (designed binder) MGSWLEFHSRLDAIDTRLWALGGSEAELAAFEKEIAAFESELQAYKGKGNPEVEKLREHAAAIRHYLQAYRHN
23.5 ratio | SEQ ID NO 787 (designed binder) MGSWSEFHTRLDAIDTRLWALGGSEAELAAFEKEIAAFESELQAYKGKGNPEVEDLRRHAAAIRFWLQAYRHN
30.1 ratio | SEQ ID NO 800 (designed binder) MGSWYEFVIRLDAIEDRLFALGGSEAELAAFEKEIAAFESELQAYKGKGNPEVEHLRVHAAHIRVWLQAYRHN
29.7 ratio | SEQ ID NO 789 (designed binder) MGSWTEFYQRLDAIDTRLWALGGSEAELAAFEKEIAAFESELQAYKGKGNPEVEGLRQQAAQIRAWLQAYRHN
30.8 ratio | SEQ ID NO 803 (designed binder) MGSWSEFYYRLAAIESRLFALGGSEAELAAFEKEIAAFESELQAYKGKGNPEVERLREHAAHIRRWLQAYRHN
16.9 ratio | SEQ ID NO 802 (designed binder) MGSWSEFVHRLDAIEVRLFALGGSEAELAAFEKEIAAFESELQAYKGKGNPEVEELRYHAAKIRSWLQAYRHN
19.4 ratio | SEQ ID NO 798 (designed binder) MGSWYEFMYRLDAIEYRLFALGGSEAELAAFEKEIAAFESELQAYKGKGNPEVESLRIHAAMIREWLQAYRHN

Further lines, the binder ahead of its results:

Binder | ELISA_avg
SEQ ID NO 769 (designed binder) MGSWEEFYYRLEAIDARLFALGGSEAELAAFEKEIAAFESELQAYKGKGNPEVEELRVHAAHIRDWLQAYRHN | 30.3 ratio
SEQ ID NO 786 (designed binder) MGSWVEFVSRLYAIDFRLWALGGSEAELAAFEKEIAAFESELQAYKGKGNPEVEALREHAAQIRDWLQAYRHN | 29 ratio
SEQ ID NO 775 (designed binder) MGSWYEFYLRLDAIDHRLWALGGSEAELAAFEKEIAAFESELQAYKGKGNPEVEMLREHAAHIRKWLQAYRHN | 16 ratio
SEQ ID NO 773 (designed binder) MGSWNEFFQRLNAIDERLWALGGSEAELAAFEKEIAAFESELQAYKGKGNPEVEDLRQHAANIRWWLQAYRHN | 28.7 ratio
SEQ ID NO 782 (designed binder) MGSWTEFHQRLDAIDERLWALGGSEAELAAFEKEIAAFESELQAYKGKGNPEVEFLREHAAKIRMWLQAYRHN | 24.4 ratio
SEQ ID NO 776 (designed binder) MGSWYEFRARLLAIDERLWALGGSEAELAAFEKEIAAFESELQAYKGKGNPEVEHLREHAAHIRNFLQAYRHN | 20.9 ratio
SEQ ID NO 778 (designed binder) MGSWTEFQNRLNAIDHRLWALGGSEAELAAFEKEIAAFESELQAYKGKGNPEVESLREHAAKIRVWLQAYRHN | 30.5 ratio
SEQ ID NO 784 (designed binder) MGSWTEFVNRLYAIDSRLWALGGSEAELAAFEKEIAAFESELQAYKGKGNPEVEGLRTHAAKIRHWLQAYRHN | 16.7 ratio
SEQ ID NO 779 (designed binder) MGSWSEFFKRLEAIDRRLWALGGSEAELAAFEKEIAAFESELQAYKGKGNPEVEELREHAAHIRVWLQAYRHN | 30.2 ratio
SEQ ID NO 783 (designed binder) MGSWLEFSQRLTAIDSRLWALGGSEAELAAFEKEIAAFESELQAYKGKGNPEVENLREHAAKIRNWLQAYRHN | 30.4 ratio
SEQ ID NO 785 (designed binder) MGSWMEFVDRLSAIDRRLWALGGSEAELAAFEKEIAAFESELQAYKGKGNPEVEVLREHAANIRQWLQAYRHN | 32.1 ratio
SEQ ID NO 772 (designed binder) MGSWNEFMDRLNAIDNRLWALGGSEAELAAFEKEIAAFESELQAYKGKGNPEVENLRKQAASIRLWLQAYRHN | 10 ratio
SEQ ID NO 770 (designed binder) MGSWVEFHYRLQAIDARLWALGGSEAELAAFEKEIAAFESELQAYKGKGNPEVEELRVHAAHIRKWLQAYRHN | 14.8 ratio
SEQ ID NO 771 (designed binder) MGSWVEFVGRLNAIDARLWALGGSEAELAAFEKEIAAFESELQAYKGKGNPEVEELRHHAAEIRNWLQAYRHN | 26 ratio
SEQ ID NO 781 (designed binder) MGSWTEFEKRLHAIDYRLWALGGSEAELAAFEKEIAAFESELQAYKGKGNPEVEDLREHAAAIRHWLQAYRHN | 17.1 ratio
SEQ ID NO 780 (designed binder) MGSWYEFQQRLEAIDTRLWALGGSEAELAAFEKEIAAFESELQAYKGKGNPEVEELREHAAHIRHWLQAYRHN | 27.3 ratio
SEQ ID NO 774 (designed binder) MGSWYEFVVRLFAIDERLWALGGSEAELAAFEKEIAAFESELQAYKGKGNPEVESLREHAAHIRSWLQAYRHN | 18.2 ratio
